Data reported in the supplement of paper PMC10567573.

B1: BTBD10 (parent)
chain: FVYENAKEGARNIRTSERVTLIVD
B2: C8orf76 (parent)
chain: KLAEAYLNLGPALSAALASSQKQH

Variants of: B1
Assay: protein stability index of a GFP-peptide fusion (GPS, HEK-293T) (PSI 1-6); higher = more stable
Settings: c terminus: a fixed tail appended
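Further: lentivirally expressed fusions sorted by FACS into six bins by GFP to DsRed ratio, PSI derived from sequencing read proportions per bin multiplied by bin number.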

Protein stability index of substitutions, site by site:
Y3: K 2.08, C 2.17, W 2.19, R 2.73, M 2.2, E 3.75, S 1.96, D 3.22, G 2.35, P 1.72, V 2.22, F 2.12, N 2.48, H 2.11, I 2.26, Q 2.62, T 2.22, A 2.08, L 1.92
N5: D 2.21, E 2.35, C 2.42, A 1.9
E4: C 2.56, Y 1.92, K 2.25, T 2.18, L 1.48, M 1.91, P 1.69, F 1.65, N 1.57, V 2.83, S 1.66, A 1.82, H 2.16, I 2.35, Q 1.94, D 2.08, W 1.83, R 1.91, G 1.75
V2: M 2.6, N 3.58, Y 2.45, E 3.83, F 2.31, C 2.33, P 3.53, T 3.08, Q 3.07, A 2.78, S 3.27, R 3.04, L 2.41, I 2.37, G 3.31, W 1.97, H 3.07, D 3.56, K 3.06
F1: T 3.06, S 3.23, N 3.75, D 3.29, A 3.21, Y 2.27, G 3.33, C 2.5, L 3.05, P 3.46, M 3.78, R 3.3, E 3.94, H 3.69, K 3.28, V 3.7, Q 2.9, I 2.71, W 2.55

Variants of: B2
Assay: as above
Settings: c terminus: a fixed tail appended

Protein stability index of substitutions, site by site:
Y6: N 3.58, V 3.81, R 2.98, A 1.54, T 1.85, P 3.59, C 2.32
A15: D 2.32, C 2.3, G 2.03, H 2.63, K 2.27, M 2.94, T 2.15, W 2.71, R 2.34, I 3.79, Y 2.09, S 1.54
E4: D 2.2, W 3.01, I 2.97, N 2.35, K 1.43, G 2.43, S 1.31, P 2.2, Y 2.55, F 1.94, Q 2.63, V 1.39
L2: S 3.07, N 2.61, M 1.68, D 3.38, P 3.15, E 3.62, F 1.11, W 2.89, Q 2.57, T 2.8, G 2.36, K 3.38, Y 1.97, V 1.33
A5: Y 4.03, Q 2.33, K 1.82, C 4.48, V 1.89, N 2.07, G 2.03, F 3.28, R 2.27
A16: P 2.39, D 2.18, T 2.12, V 2.05, Q 2.38, G 2.4, W 1.09, R 2.43, E 1.82, H 2.86, K 1.97
Q23: T 2.83, P 2.57, W 2.43, S 2.91, I 2.73, H 2.74, C 2.22, L 2.86, V 2.9, F 2.92, Y 2.51
P11: F 2.45, Q 2.28, H 1.84, E 2.52, M 2.9, Y 1.26, S 3.4
G10: S 2.51, I 3.16, E 1.87, Y 1.86, D 1.88, R 1.94, W 1.61, K 2.26, M 2.77, T 2.12, V 2.73
H24: E 1.47, N 2.29, R 3, T 2.79, Y 2.56, C 3.67, S 2.83, L 2.44, P 2.62, A 4.29, D 1.67, V 3.61, I 2.4
A18: E 1.95, Y 2.37, K 2.02, T 1.52, H 2.73, I 2.4, P 2.04, V 2.36, F 3, D 2.22, M 3.46
A12: F 2.73, K 2.32, W 1.59, N 1.68, M 2.5, T 1.26, D 2.61, C 1.82, I 2.25, L 2.59
K22: Y 3.64, P 4.17, L 3.34, N 1.83, H 2.52, E 4.71, Q 2.76, S 3.07, R 4.21, I 3.1, F 2.69
S20: C 3.5, D 1.48, K 1.6, H 3.47, E 1.3, V 3.17, P 2.23, G 2.46, T 1.9
K1: H 1.97, W 3.61, Y 2.63, S 2.08, I 2.14, T 2.78, E 2.64, L 5.14
Q21: I 2.71, Y 4.14, H 2.42, E 1.78, R 3.07, T 3.01, K 2.1, P 2.18, V 2.99, W 2.31, M 3.44, G 3.38
L13: M 1.8, I 3.23, G 2.65, R 2.24, T 2.65, S 2.54, P 2.82, E 3.29, N 2.31, V 1.48, D 3.15
S19: A 4.1, K 2.51, Q 2.43, I 3.22, Y 2.84, H 3.15, T 3.75, R 2.74, D 1.89, W 2.57
A3: R 2.24, L 3.56, M 1.43, W 3.22, F 3.79, V 3.08, N 2.12, H 2.29, E 1.85, C 3.15
S14: D 2.06, M 3.24, P 1.81, R 2.06, Q 2.93, H 2.18, T 3.75, Y 2.35, N 2.86
N8: H 2.16, R 3.8, S 3.78, W 3.78, D 2.07, A 4.23, G 2.5, T 3.12, Y 2.59, E 2.42, L 2.33, C 3.63
L17: G 1.95, R 2.45, C 1.6, P 2.76, S 2.03, F 2.21, I 2.16, Y 1.97, V 1.59, K 1.81, Q 2.17, E 2.26, D 2.94, M 2.69
L9: E 2.36, M 2.36, K 3.11, P 2.75, Q 3.08, C 1.36, H 2.26, F 2.56, R 2.61, W 3.02, D 3.5
L7: K 1.62, I 2.59, A 1.6, G 1.67, N 1.94, Q 1.54, V 3.1, E 2.65, H 1.94
